For experiment [1], the target named is T1, HLA-DP on Ba/F3 cells (human, UniProt P20036 29-222; P04440 30-225, limits assumed).
T1 construct: whole, on cells; also called Ba/F3-HLA-DP
Briefly: FACS, FIG. 6.

Experiment [2] addresses T2, HLA-DR on Ba/F3 cells (human, UniProt P01903 26-216; P79483 30-227, limits assumed).
T2 construct: whole, on cells; also called Ba/F3-HLA-DR
T2 MHC II alpha: not shown
T2 MHC II beta: not shown
The experiment can be described thus: FACS, FIG. 7.

In experiment [3] the target is T3, HLA-DQ2.5 on Ba/F3 cells (not in the form of a complex with a linked peptide) (human, UniProt P01909 24-254; P01920 33-261).
T3 construct: also called Ba/F3-HLA-DQ2.5; No peptide
T3 MHC II alpha: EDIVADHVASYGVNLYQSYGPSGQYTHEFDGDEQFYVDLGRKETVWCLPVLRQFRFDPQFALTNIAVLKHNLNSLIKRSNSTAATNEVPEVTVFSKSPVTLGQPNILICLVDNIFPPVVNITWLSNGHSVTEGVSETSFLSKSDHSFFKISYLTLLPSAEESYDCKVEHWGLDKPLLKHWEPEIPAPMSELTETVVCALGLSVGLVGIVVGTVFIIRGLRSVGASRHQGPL
T3 MHC II beta: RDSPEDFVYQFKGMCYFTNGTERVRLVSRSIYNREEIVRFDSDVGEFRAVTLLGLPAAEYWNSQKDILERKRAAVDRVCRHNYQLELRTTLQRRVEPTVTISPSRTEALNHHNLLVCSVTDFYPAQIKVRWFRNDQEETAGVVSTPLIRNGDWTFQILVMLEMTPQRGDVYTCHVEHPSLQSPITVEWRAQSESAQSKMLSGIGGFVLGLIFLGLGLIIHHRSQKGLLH
The experiment can be described thus: FACS, Ba/F3 cells expressing the target, goat F(ab')2 anti-human IgG-PE (Example 7).

In another experiment the target is T4, HLA-DQ2.2 on Ba/F3 cells (human, UniProt P01909 24-254; P01920 33-261).
T4 construct: also called Ba/F3-HLA-DQ2.2
T4 MHC II alpha: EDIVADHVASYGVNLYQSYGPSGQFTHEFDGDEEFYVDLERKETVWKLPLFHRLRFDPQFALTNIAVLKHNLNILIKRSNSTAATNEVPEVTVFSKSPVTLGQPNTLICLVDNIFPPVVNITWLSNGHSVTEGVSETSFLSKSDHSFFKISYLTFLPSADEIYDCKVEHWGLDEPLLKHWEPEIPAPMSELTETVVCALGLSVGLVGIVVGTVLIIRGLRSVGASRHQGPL
T4 MHC II beta: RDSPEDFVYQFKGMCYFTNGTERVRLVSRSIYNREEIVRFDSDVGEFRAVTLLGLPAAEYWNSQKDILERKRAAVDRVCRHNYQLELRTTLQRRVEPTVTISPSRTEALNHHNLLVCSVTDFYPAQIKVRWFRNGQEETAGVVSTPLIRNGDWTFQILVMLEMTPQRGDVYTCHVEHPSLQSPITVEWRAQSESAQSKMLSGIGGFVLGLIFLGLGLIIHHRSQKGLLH
Briefly: FACS, Ba/F3 cells expressing the target, goat F(ab')2 anti-human IgG-PE (Example 9).

In a further experiment the target is T5, HLA-DQ8 on Ba/F3 cells (human, UniProt P01909 24-254; P01920 33-261).
T5 construct: also called Ba/F3-HLA-DQ8
T5 MHC II alpha: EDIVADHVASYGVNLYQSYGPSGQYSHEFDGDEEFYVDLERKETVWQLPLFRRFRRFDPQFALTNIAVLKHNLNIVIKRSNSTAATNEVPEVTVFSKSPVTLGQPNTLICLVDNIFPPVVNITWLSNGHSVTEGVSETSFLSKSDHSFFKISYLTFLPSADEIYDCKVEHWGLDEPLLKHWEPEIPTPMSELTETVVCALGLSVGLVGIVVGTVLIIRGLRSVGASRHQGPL
T5 MHC II beta: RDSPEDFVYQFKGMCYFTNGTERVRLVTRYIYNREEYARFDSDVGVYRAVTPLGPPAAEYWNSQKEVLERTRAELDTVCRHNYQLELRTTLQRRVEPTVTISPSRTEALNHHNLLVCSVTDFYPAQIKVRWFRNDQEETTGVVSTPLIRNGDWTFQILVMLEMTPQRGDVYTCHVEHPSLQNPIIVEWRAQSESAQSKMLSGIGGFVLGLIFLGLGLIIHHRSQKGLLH
The experiment can be described thus: FACS, Ba/F3 cells expressing the target, goat F(ab')2 anti-human IgG-PE (Example 10).

The next experiment deals with T6, HLA-DQ5.1 on Ba/F3 cells (human).
T6 construct: also called BaF3-HLA-DQ5.1
The experiment is described as above.

Experiment [4] addresses T2, HLA-DR on Ba/F3 cells. The description is as above.
For experiment [5], the target named is T1, HLA-DP on Ba/F3 cells. The experiment is described as above.
The target of another experiment is T7, HLA-DQ6.3 on Ba/F3 cells (human, UniProt P01920 33-261).
T7 construct: also called BaF3-HLA-DQ6.3
The experiment can be described thus: FACS, Ba/F3 cells expressing the target, goat F(ab')2 anti-human IgG-PE (Example 4.2).

Another experiment concerns the target T8, HLA-DQ7.3 on Ba/F3 cells (human, UniProt P01909 24-254; P01920 33-261).
T8 construct: also called Ba/F3-HLA-DQ7.3
T8 MHC II alpha: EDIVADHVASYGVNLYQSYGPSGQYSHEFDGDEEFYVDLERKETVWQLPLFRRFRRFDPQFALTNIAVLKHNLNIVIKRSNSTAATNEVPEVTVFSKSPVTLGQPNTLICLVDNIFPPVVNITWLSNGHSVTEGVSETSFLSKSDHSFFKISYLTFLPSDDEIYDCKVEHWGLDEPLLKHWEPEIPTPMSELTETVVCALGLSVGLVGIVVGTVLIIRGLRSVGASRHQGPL
T8 MHC II beta: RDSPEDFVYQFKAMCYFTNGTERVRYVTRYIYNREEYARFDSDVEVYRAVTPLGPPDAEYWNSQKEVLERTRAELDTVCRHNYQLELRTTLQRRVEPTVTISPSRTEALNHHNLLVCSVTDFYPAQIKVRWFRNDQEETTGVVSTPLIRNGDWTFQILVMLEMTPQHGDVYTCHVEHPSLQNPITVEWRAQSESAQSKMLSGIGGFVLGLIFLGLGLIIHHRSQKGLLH
The description is as above.

In experiment [6] the target is T9, HLA-DQ2.5 on HLA-DQ2.5 positive PBMC-B cells (human, UniProt P01909 24-254; P01920 33-261).
T9 construct: also called DQ2.5 + PBMC; HLA-DQ2.5+PBMC B cell
T9 MHC II alpha: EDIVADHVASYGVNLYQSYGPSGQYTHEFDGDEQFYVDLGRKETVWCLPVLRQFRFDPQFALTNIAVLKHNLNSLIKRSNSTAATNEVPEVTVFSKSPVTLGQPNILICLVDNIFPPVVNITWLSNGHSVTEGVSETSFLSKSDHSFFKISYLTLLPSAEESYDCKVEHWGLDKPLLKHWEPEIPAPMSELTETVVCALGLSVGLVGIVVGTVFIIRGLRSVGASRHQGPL
T9 MHC II beta: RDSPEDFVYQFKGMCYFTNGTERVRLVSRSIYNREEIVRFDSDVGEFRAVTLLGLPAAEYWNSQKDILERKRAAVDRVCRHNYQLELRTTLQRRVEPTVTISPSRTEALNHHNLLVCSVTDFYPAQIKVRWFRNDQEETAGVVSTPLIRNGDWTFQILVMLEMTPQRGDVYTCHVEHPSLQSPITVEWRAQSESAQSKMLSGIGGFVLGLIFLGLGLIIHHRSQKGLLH
Briefly: FACS, HLA-DQ2.5 positive PBMC with FcR blocking reagent, anti-CD19 stain, Alexa Fluor 555 anti-human IgG Fc antibody (Example 8).

T1 sequence (P20036 29-222 limits assumed, chain 1 of 4, other chains not shown): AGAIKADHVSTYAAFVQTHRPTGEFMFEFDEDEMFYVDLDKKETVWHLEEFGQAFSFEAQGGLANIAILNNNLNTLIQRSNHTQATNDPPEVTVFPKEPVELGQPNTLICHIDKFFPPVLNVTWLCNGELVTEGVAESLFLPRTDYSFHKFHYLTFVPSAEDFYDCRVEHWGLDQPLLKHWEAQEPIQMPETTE
T1 sequence (P04440 30-225 limits assumed, chain 2 of 4, other chains not shown): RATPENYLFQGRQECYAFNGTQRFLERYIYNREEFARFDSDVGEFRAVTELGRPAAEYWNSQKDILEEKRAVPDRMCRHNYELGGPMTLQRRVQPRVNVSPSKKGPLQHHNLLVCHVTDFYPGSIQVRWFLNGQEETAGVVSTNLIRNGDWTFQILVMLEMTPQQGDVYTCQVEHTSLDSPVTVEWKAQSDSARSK

B1: DQN0089ff (antibody, V domains shown)
VH: QEQVVEYGGDLVQPEGSLTLTCKASGLDFSSTYYMCWVRQAPGKGLEWIGCIYGGSSDSTYYASWAKGRFTISKTSPTTVTLQMTSLTAADTATHFCATYDYGAVGYDLWGPGTLVTVSS
VL: EVVVTQTPASVEVAVGGTVTIKCQASQNISPYLSWYQQKPGQPPKLLIYKASTLASGVSSRFKGSGSGTQFTLTISDLECADAATYYCQNNYGVSINYGHTFGGGTKVEIK
notes: also called DQN0089Hf; DQN0089Lf
With B1, the binding result in the experiment with HLA-DP on Ba/F3 cells [1] and with HLA-DR on Ba/F3 cells [2] was “binds” throughout.

B2: IC17 (antibody, V domains shown)
VH: QVQLQQSGPQLVRPGASVNISCKASGYSFTSYWMHWVNQRPGQGLEWIGMIDPSYSETRLNQKFKDKATLTVDKSSSTAYMQLSSPTSEDSAVYYCALYGNYFDYWGQGTTLTVSS
VL: DIQMTQSSSSFSVSLGDRVTITCKASEDIYNRLAWYQQKPGNAPRLLISGATSLETGVPSRFSGSGSGKDYTLSITSLQTEDVATYYCQQYWSTPYTFGGGTKLEVK
notes: also called IC17H; IC17L
Consider B2, for which the binding result in experiment [3] is “no binding (tested: 10 microgram/mL)”; with HLA-DQ2.2 on Ba/F3 cells, “no binding (tested: 10 microgram/mL)”; in the experiment with HLA-DQ8 on Ba/F3 cells, “no binding (tested: 20 microgram/mL)”; with HLA-DQ5.1 on Ba/F3 cells, “no binding (tested: 20 microgram/mL)”; in the experiment with HLA-DR on Ba/F3 cells [4], “no binding (tested: 20 microgram/mL)”; in the experiment with HLA-DP on Ba/F3 cells [5], “no binding (tested: 20 microgram/mL)”. Further, the binding result in the experiment with HLA-DQ6.3 on Ba/F3 cells was “no binding (tested: 20 microgram/mL)”; with HLA-DQ7.3 on Ba/F3 cells, “no binding (tested: 20 microgram/mL)”; in experiment [6] it was “no binding (tested: 10 microgram/mL)”.
